In the assay the target is wild-type human uPAR (human) (UniProt Q03405). Description: cell-based or functional assay.

Results on two substances are retold here after patent US20140161803A1, “CONSTITUTIVELY ACTIVE UPAR VARIANTS AND THEIR USE FOR THE GENERATION AND ISOLATION OF INHIBITORY ANTIBODIES” (IFOM Fondazione Istituo FIRC di Oncologia Molecolare, priority 2011, published 2014).

Sequence of wild-type human uPAR (human) (Q03405 23-305): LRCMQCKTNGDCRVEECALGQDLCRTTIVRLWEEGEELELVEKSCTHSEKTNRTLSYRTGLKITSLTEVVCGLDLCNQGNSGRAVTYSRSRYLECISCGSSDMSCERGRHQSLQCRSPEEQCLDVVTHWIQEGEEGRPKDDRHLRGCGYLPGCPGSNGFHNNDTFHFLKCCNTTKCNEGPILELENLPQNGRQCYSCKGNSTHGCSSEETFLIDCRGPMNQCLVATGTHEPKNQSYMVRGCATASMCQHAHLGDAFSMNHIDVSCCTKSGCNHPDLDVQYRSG

Regarding R2 (antibody), the % max inhibition (pro-uPA pre-treat.) turned out to be 21% and the % max inhibition (veh. pre-treat.) came out at 65%.

As to “Somatomedin B domain of VN (from UniProt P04004 20-63) (ligand)”, the % max inhibition (pro-uPA pre-treat.) is 100%, the % max inhibition (veh. pre-treat.) was determined as 100% and the IC50 (pro-uPA pre-treat.) worked out at 800 nM.
